These results are taken from paper PMC8764033, “Single-molecule analysis of specificity and multivalency in binding of short linear substrate motifs to the APC/C” (Nature Communications, 2022).

The target of this test is T1, APC/C^Cdh1 (Saccharomyces cerevisiae, UniProt P53068+P53197).
T1 construct: APC/C was purified from yeast cells; made in house; host or cells: APC/C from S. cerevisiae W303 strain NHY13 (Cdc16-TAP, Apc1-GFP, cdh1 deleted); Cdh1 from Sf9 (baculovirus)
T1 sequence (P53068 whole entry, looked up): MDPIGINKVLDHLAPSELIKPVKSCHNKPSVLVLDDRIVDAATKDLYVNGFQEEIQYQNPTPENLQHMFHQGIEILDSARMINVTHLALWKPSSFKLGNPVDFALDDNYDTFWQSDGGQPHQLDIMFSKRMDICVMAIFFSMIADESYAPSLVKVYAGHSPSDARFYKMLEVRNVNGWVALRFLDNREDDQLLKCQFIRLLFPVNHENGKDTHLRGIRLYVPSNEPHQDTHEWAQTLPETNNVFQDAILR
T1 sequence (P53197 whole entry, looked up): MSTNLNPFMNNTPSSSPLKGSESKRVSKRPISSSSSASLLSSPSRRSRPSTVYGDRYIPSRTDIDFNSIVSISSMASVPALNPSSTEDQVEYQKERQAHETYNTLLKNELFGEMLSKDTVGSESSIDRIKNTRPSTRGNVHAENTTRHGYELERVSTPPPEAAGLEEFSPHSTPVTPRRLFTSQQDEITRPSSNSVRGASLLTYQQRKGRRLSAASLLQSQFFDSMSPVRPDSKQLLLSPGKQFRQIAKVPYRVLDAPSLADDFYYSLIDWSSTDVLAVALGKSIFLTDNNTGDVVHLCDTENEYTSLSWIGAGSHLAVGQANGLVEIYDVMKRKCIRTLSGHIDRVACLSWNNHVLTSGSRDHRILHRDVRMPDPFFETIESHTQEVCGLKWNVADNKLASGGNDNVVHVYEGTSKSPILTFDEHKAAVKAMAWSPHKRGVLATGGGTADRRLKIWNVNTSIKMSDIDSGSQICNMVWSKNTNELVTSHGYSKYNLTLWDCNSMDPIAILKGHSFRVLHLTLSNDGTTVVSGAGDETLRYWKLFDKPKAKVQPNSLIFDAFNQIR
It is filed as binding. The conditions noted are these: for mean dwell time: representative of two independent experiments, ± SE, ligand ≤1 nM, buffer C + BSA. How it is done:
Yeast strains were derivatives of W303 and are listed in Supplementary Table 2. For APC/C purification, we used a strain carrying Cdc16-TAP and lacking Cdh1 (DOM1126); in most experiments, the strain also carried Apc1-GFP (NHY13). Yeast were grown in YPD media to OD600 = 0.8, collected and flash-frozen. Cells were lysed by bead beating in lysis buffer A (50 mM HEPES pH 7.5, 150 mM KCl, 10% glycerol, 0.2% Triton X-100, 63 µM B-glycerophosphate, 48 µM sodium fluoride, 1 µg ml^−1 pepstatin A, 1 µg ml^−1 leupeptin, 1 µg ml^−1 aprotinin, 1 mM PMSF, 1 mM DTT, 0.5 mM EDTA) and APC/C was purified using magnetic IgG beads. The beads were washed using wash buffer A (20 mM HEPES pH 7.5, 150 mM KCl, 10% Glycerol, 0.05% Triton X-100). After incubation with purified Cdh1 or Cdc20, the APC/C was cleaved off the beads with TEV protease in wash buffer A with 0.05% Tween-20 (for single-molecule studies) or 0.05% Triton X-100 (for ensemble assays such as ubiquitylation) and used immediately.
For all SMOR experiments, 24 × 50 mm high precision glass coverslips (Bioscience Tools) and drilled microscope slides were passivated with a combination of PEG and PEG-biotin (coverslips) or PEG only (slides) following a previously published protocol for SiMPull[31]. Reaction chambers (~20 µl) were created using double-sided tape and epoxy. Protein was immobilized on the surface with 0.2 mg ml^−1 NeutrAvidin in buffer C (20 mM HEPES pH 7.5, 150 mM KCl, 10% glycerol, 0.05% Tween-20, 1 mM DTT). Excess NeutrAvidin was washed away and incubated with either biotin-conjugated mouse monoclonal anti-Strep-Tag II antibody (LSBio, Cat. No. LS-C203632-100) or biotin-conjugated rabbit polyclonal anti-GFP antibody (Rockland, Cat. No. 600-406-215) diluted in buffer C + BSA (0.1 mg ml^−1; Molecular Biology Grade Bovine Serum Albumin). Activator WD40 and activated APC/C (typically 50 µl containing about 65 ng APC/C, of which only a small fraction is immobilized on the glass) were immobilized using anti-Strep-Tag II, while APC/C alone was immobilized with anti-GFP. SMOR results were similar when performed in the buffer (wash buffer B) used in polarization anisotropy.
To capture dynamic protein–protein interactions, dye-labeled substrate diluted in buffer C + BSA was added to the chamber containing immobilized proteins. Interactions were imaged by TIRF microscopy as described below. For optimal signal-to-noise ratio, peptide concentration was no greater than 1 nM. Protein substrates included Hsl1 aa 667–872 and a C-terminal HaloTag followed by a TAP tag, and were produced by translation in rabbit reticulocyte lysates using TnT Quick Coupled Transcription/Translation System (Promega) (see Supplementary Table 5 for plasmids). Protein was purified with magnetic IgG beads and labeled on the bead with JF549 or JF646 dye so that unbound dye could be washed away. Purified dye-labeled protein was then cleaved from the beads using TEV protease. Before adding substrate to the reaction chamber, oxygen scavenging reagents were added (10 nM protocatechuate-3,4-dioxygenase, 2.5 mM protocatechuic acid, and 1 mM Trolox)[41]. A detailed description of the SMOR analysis pipeline is found in Supplementary Note 1.
Microscopy was performed with a Nikon Eclipse TE2000-E with Perfect Focus with a 100 × 1.49na oil, Apo TIRF DIC N2, 0.13-0.2, WD0.12 objective. Movies were recorded using the Andor iXon DU-897E-CSO. For visualizing GFP-tagged protein, a 491 nm laser was used with an ET525/50 (Chroma) filter for emission. For visualizing JF549-labeled substrate, a 561 nm laser was used with an ET595/50 (Chroma) filter for emission. For visualizing all Cy5-labeled peptides and JF646-labeled substrates, a 640 nm laser was used with an ET685/70 filter (Chroma) for emission. Initially, for each substrate tested, we acquired movies at multiple intervals to deduce the optimal interval to decrease bleaching. µManager version 2.0 was used to control the microscope and record time-lapse movies.

Where “and” joins values, the source holds several entries; their conditions need not be identical. Equal values may be shown once. Read-outs that look alike come from different tables or passages of the source.

B1: Hsl1^Halo KEN & D: Hsl1 fragment (amino acids 667–872) with C-terminal HaloTag, JF549-labeled (protein)
chain: QNSASKRSLYSLQSISKRSLNLNDLLVFDDPLPSKKPASENVNKSEPHSLESDSDFEILCDQILFGNALDRILEEEEDNEKERDTQRQRQNDTKSSADTFTISGVSTNKENEGPEYPTKIEKNQFNMSYKPSENMSGLSSFPIFEKENTLSSSYLEEQKPKRAALSDITNSFNKMNKQEGMRIEKKIQREQLQKKNDRPSPLKPIQ
modifications: JF549 or JF646 dye covalently bound to the HaloTag; left off: HaloTag, C-terminal, kept | TAP, C-terminal, cleaved
notes: Hsl1 fragment (amino acids 667–872) with C-terminal HaloTag, JF549-labeled
As to B1, the Dwell Time was determined as 300 s; the “fold increase in affinity/dwell time, APC/C^Cdh1 vs Cdh1 alone” value worked out at 6 fold; the mean dwell time is 321 ± 14 s and 321 s. For the same molecule, the “Dwell Time” value (Supplementary Table 1, replicate 1 (movie listed first)) turned out to be 321.161 ± 14.186 s. Moreover, the “Dwell Time” value (Supplementary Table 1, replicate 2 (movie listed second)) amounted to 268.262 ± 10.979 s. For the same molecule, the mean dwell time entry (listed as Hsl1) is given as “over 300 s”. Where the note is “listed as Hsl1 fragment”, the mean dwell time worked out at 321 ± 14 s.
